Measurements: patent US20200024330A1

Key:
Assay in all cases: cell-based or functional assay
[1] = target: HIV-1 Env of isolate MGRM-C-019 (HIV-1)
[2] = target: HIV-1 Env of isolate SC422661.8 (HIV-1)
[3] = target: HIV-1 Env of isolate MGRM-C-006 (HIV-1)
[4] = target: HIV-1 Env of isolate 98CN006 (HIV-1)
[5] = target: HIV-1 Env of isolate MGRM-D-001 (HIV-1)
[6] = target: HIV-1 JR-CSF Env N197A (HIV-1 (isolate JR-CSF)) (UniProt P20871)
[7] = target: HIV-1 Env of isolate MGRM-D-016 (HIV-1)
[8] = target: HIV-1 Env of isolate MGRM-D-022 (HIV-1)
[9] = target: HIV-1 Env of isolate 97ZA012 (HIV-1)
[10] = target: HIV-1 JR-CSF Env R480A (HIV-1 (isolate JR-CSF)) (UniProt P20871)
[11] = target: HIV-1 JR-CSF Env N478A (HIV-1 (isolate JR-CSF)) (UniProt P20871)
[12] = target: HIV-1 Env of isolate MGRM-F1-017 (subtype F), on pseudovirus (HIV-1)
[13] = target: HIV-1 Env of isolate MGRM-F1-021 (subtype F), on pseudovirus (HIV-1)
[14] = target: HIV-1 Env of isolate 98IN022 (HIV-1)
[15] = target: HIV-1 Env of isolate MGRM-C-028 (HIV-1)
[16] = target: HIV-1 Env of isolate MGRM-G-025 (subtype G) (HIV-1)
[17] = target: HIV-1 Env of isolate MGRM-G-001 (subtype G) (HIV-1)
[18] = target: HIV-1 Env of isolate MGRM-G-004 (subtype G) (HIV-1)
[19] = target: HIV-1 Env of isolate MGRM-G-028 (subtype G) (HIV-1)
[20] = target: HIV-1 Env of isolate MGRM-G-027 (subtype G) (HIV-1)
[21] = target: HIV-1 Env of isolate MGRM-G-014 (subtype G) (HIV-1)
[22] = target: HIV-1 Env of isolate MG RM-D-021 (subtype D) (HIV-1)
[23] = target: HIV-1 Env of isolate MGRM-C-004 (pseudovirus) (HIV-1 isolate MGRM-C-004, subtype C)
[24] = target: HIV-1 Env of isolate MGRM-C-027 (pseudovirus) (HIV-1 isolate MGRM-C-027, subtype C)
[25] = target: HIV-1 Env of isolate MGRM-F1-021 (HIV-1)
[26] = target: HIV-1 Env of isolate 97ZA012 (pseudovirus) (HIV-1 isolate 97ZA012, subtype C)
[27] = target: HIV-1 Env of isolate MGRM-C-022 (pseudovirus) (HIV-1 isolate MGRM-C-022, subtype C)
[28] = target: HIV-1 93UG077 envelope glycoprotein (Env) (HIV-1)
[29] = target: HIV-1 92RW026 envelope glycoprotein (Env) (HIV-1)
[30] = target: HIV-1 Env of isolate MGRM-G-014 (clade G pseudovirus) (HIV-1)
[31] = target: HIV-1 Env of isolate MGRM-G-024 (clade G pseudovirus) (HIV-1)
[32] = target: HIV-1 94KE105 envelope glycoprotein (Env) (HIV-1)
[33] = target: HIV-1 92RW009 envelope glycoprotein (Env) (HIV-1)
[34] = target: HIV-1 98CN009 envelope glycoprotein (Env) on pseudovirus (HIV-1)
[35] = target: HIV-1 Env of pseudovirus PVO.4 (Acute), clade B (HIV-1)
[36] = target: HIV-1 MGRM-A-003 envelope glycoprotein (Env) (HIV-1)
[37] = target: HIV-1 MGRM-C-015 Env (HIV-1)
[38] = target: HIV-1 Env of pseudovirus APV_6, clade B (HIV-1)
[39] = target: HIV-1 Env of isolate 92UG001 (clade D) (HIV-1)
[40] = target: HIV-1 MGRM-F1-006 Env (pseudovirus) (HIV-1)
[41] = target: HIV-1 MGRM-C-027 envelope glycoprotein (Env) on pseudovirus (HIV-1)
[42] = target: HIV-1 LAVI_C3 Env (HIV-1)

Substance | IC50 [1] [µg/mL] | IC50 [2] [µg/mL] | IC50 [3] [µg/mL] | IC50 [4] [µg/mL] | IC50 [5] [µg/mL] | Fold IC50 increase relative to wild-type [6] [fold] | IC50 [7] [µg/mL] | IC50 [8] [µg/mL] | IC50 [9] [µg/mL] | Fold IC50 increase relative to wild-type [10] [fold] | Fold IC50 increase relative to wild-type [11] [fold] | IC50, pseudovirus neutralization [12] [µg/mL] | IC50, pseudovirus neutralization [13] [µg/mL] | IC50 [14] [µg/mL] | IC50 [15] [µg/mL] | IC50 (µg/mL), pseudovirus neutralization [22] [µg/mL] | IC50 (µg/mL) neutralization [23] [µg/mL] | IC50 (µg/mL) neutralization [24] [µg/mL] | IC50 [25] [µg/mL] | IC50 (µg/mL) neutralization [26] [µg/mL] | further results
5136_H01 (PGT-131) (antibody) | 0.021 | > 50 | 0.611 | 35.3 | > 50 | 1.1 | > 50 | > 50 | 1.81 | 1.5 | 1 | > 50 | > 50 | > 50 | > 50 |  |  |  |  |  | 
PGT-141 (4964_G22; 4993_K13) (antibody) |  |  |  |  |  |  |  |  |  |  |  |  |  |  |  |  |  |  |  |  | neutralization IC50 [16]: > 50 µg/mL; neutralization IC50 [17]: 0.392 µg/mL; neutralization IC50 [18]: > 50 µg/mL; neutralization IC50 [19]: 24.9 µg/mL; neutralization IC50 [20]: > 50 µg/mL; neutralization IC50 [21]: 0.222 µg/mL
5145_B14 (PGT-127) (antibody) |  |  |  |  |  | 0.6 |  |  |  | 0.2 | 1.2 |  |  |  |  | 0.056 | 0.532 | > 50 | > 50 | > 50 | IC50 (µg/mL) neutralization [27]: 0.41 µg/mL
5329_C19 (PGT-136) (antibody) | 20.1 | > 50 | > 50 | 0.406 | > 50 |  | > 50 | > 50 | > 50 |  |  | > 50 | > 50 | 13.6 | 33.7 |  |  |  |  |  | 
PGT-121 (antibody) |  |  |  |  |  |  |  |  |  |  |  |  |  |  |  |  |  |  |  |  | IC50 neutralization [28]: 0.0459 µg/mL
4838_L06 (PGT-121) (antibody) |  |  |  |  |  |  |  |  |  |  |  |  |  |  |  | 5.33 | 0.011 | 0.011 | 0.099 | 0.002 | IC50 (µg/mL) neutralization [27]: 0.015 µg/mL
1496_C09 (PG9) (TCN-109) (antibody) |  |  |  |  |  |  |  |  |  |  |  |  |  |  |  |  |  |  |  |  | IC50 (µg/ml), pseudovirus neutralization [29]: 0.27 µg/mL; IC50 (µg/ml), pseudovirus neutralization [30]: 6.32 µg/mL; IC50 (µg/ml), pseudovirus neutralization [31]: 0.07 µg/mL; IC50 (µg/ml), pseudovirus neutralization [32]: 29.6 µg/mL; neutralization IC50 [17]: 0.166 µg/mL; IC50 (µg/ml), pseudovirus neutralization [33]: 0.03 µg/mL; IC50 (µg/ml), pseudovirus neutralization [34]: 1.07 µg/mL; IC50 (µg/mL), pseudovirus neutralization [7]: 0.098 µg/mL; IC50 (µg/ml), pseudovirus neutralization [35]: 4.01 µg/mL; neutralization IC50 [19]: 0.891 µg/mL; IC50 (µg/ml), pseudovirus neutralization [36]: 0.65 µg/mL; IC50 [37]: 0.5 µg/mL; IC50 (µg/ml), pseudovirus neutralization [38]: 0.12 µg/mL; IC50 (µg/ml), pseudovirus neutralization [39]: 41.8 µg/mL; IC50 (µg/ml), pseudovirus neutralization [40]: 1.45 µg/mL; IC50 (ug/ml), neutralizing activity [41]: 2.45 µg/mL; IC50 neutralization [41]: 2.45 µg/mL; IC50 [42]: 1.45 µg/mL; neutralization IC50 [20]: 0.007 µg/mL; neutralization IC50 [21]: 16.5 µg/mL
4877_D15 (PGT-122) (antibody) |  |  |  |  |  |  |  |  |  |  |  |  |  |  |  | 11.7 | 0.02 | 0.039 | 2.3 | 0.004 | IC50 (ug/ml), neutralizing activity [41]: 0.0388 µg/mL; IC50 (µg/mL) neutralization [27]: 0.012 µg/mL
5343_B08 (PGT-135) (antibody) | 0.264 | 21.8 | > 50 | 0.429 | > 50 | 0.3 | > 50 | > 50 | > 50 | 1.4 | 0.7 | 7.79 | 0.065 | 0.014 | 1.47 |  |  |  |  |  | 
